According to patent US12099068B2, “Biomarkers for graft-versus-host disease” (Incyte Corporation, priority 2018, dated 2024):

B1: TRAF2 (protein, UniProt Q12933 2-501, looked up)
TNF receptor-associated …: AAASVTPPGSLELLQPGFSKTLLGTKLEAKYLCSACRNVLRRPFQAQCGHRYCSFCLASILSSGPQNCAACVHEGIYEEGISILESSSAFPDNAARREVESLPAVCPSDGCTWKGTLKEYESCHEGRCPLMLTECPACKGLVRLGEKERHLEHECPERSLSCRHCRAPCCGADVKAHHEVCPKFPLTCDGCGKKKIPREKFQDHVKTCGKCRVPCRFHAIGCLETVEGEKQQEHEVQWLREHLAMLLSSVLEAKPLLGDQSHAGSELLQRCESLEKKTATFENIVCVLNREVERVAMTAEACSRQHRLDQDKIEALSSKVQQLERSIGLKDLAMADLEQKVLEMEASTYDGVFIWKISDFARKRQEAVAGRIPAIFSPAFYTSRYGYKMCLRIYLNGDGTGRGTHLSLFFVVMKGPNDALLRWPFNQKVTLMLLDQNNREHVIDAFRPDVTSSSFQRPVNDMNIASGCPLFCPVSKMEAKNSYVRDDAIFIKAIVDLTGL
B2: SMAD1 (protein, UniProt Q15797 1-465, looked up)
Mothers against …: MNVTSLFSFTSPAVKRLLGWKQGDEEEKWAEKAVDALVKKLKKKKGAMEELEKALSCPGQPSNCVTIPRSLDGRLQVSHRKGLPHVIYCRVWRWPDLQSHHELKPLECCEFPFGSKQKEVCINPYHYKRVESPVLPPVLVPRHSEYNPQHSLLAQFRNLGQNEPHMPLNATFPDSFQQPNSHPFPHSPNSSYPNSPGSSSSTYPHSPTSSDPGSPFQMPADTPPPAYLPPEDPMTQDGSQPMDTNMMAPPLPSEINRGDVQAVAYEEPKHWCSIVYYELNNRVGEAFHASSTSVLVDGFTDPSNNKNRFCLGLLSNVNRNSTIENTRRHIGKGVHLYYVGGEVYAECLSDSSIFVQSRNCNYHHGFHPTTVCKIPSGCSLKIFNNQEFAQLLAQSVNHGFETVYELTKMCTIRMSFVKGWGAEYHRQDVTSTPCWIEIHLHGPLQWLDKVLTQMGSPHNPISSVS
B3: B4GAT1 (protein, UniProt O43505 1-415, looked up)
Beta-1,4-glucuronyltransferase …: MQMSYAIRCAFYQLLLAALMLVAMLQLLYLSLLSGLHGQEEQDQYFEFFPPSPRSVDQVKAQLRTALASGGVLDASGDYRVYRGLLKTTMDPNDVILATHASVDNLLHLSGLLERWEGPLSVSVFAATKEEAQLATVLAYALSSHCPDMRARVAMHLVCPSRYEAAVPDPREPGEFALLRSCQEVFDKLARVAQPGINYALGTNVSYPNNLLRNLAREGANYALVIDVDMVPSEGLWRGLREMLDQSNQWGGTALVVPAFEIRRARRMPMNKNELVQLYQVGEVRPFYYGLCTPCQAPTNYSRWVNLPEESLLRPAYVVPWQDPWEPFYVAGGKVPTFDERFRQYGFNRISQACELHVAGFDFEVLNEGFLVHKGFKEALKFHPQKEAENQHNKILYRQFKQELKAKYPNSPRRC
B4: DDX58 (protein, UniProt O95786 1-925, looked up)
Antiviral innate immune …: MTTEQRRSLQAFQDYIRKTLDPTYILSYMAPWFREEEVQYIQAEKNNKGPMEAATLFLKFLLELQEEGWFRGFLDALDHAGYSGLYEAIESWDFKKIEKLEEYRLLLKRLQPEFKTRIIPTDIISDLSECLINQECEEILQICSTKGMMAGAEKLVECLLRSDKENWPKTLKLALEKERNKFSELWIVEKGIKDVETEDLEDKMETSDIQIFYQEDPECQNLSENSCPPSEVSDTNLYSPFKPRNYQLELALPAMKGKNTIICAPTGCGKTFVSLLICEHHLKKFPQGQKGKVVFFANQIPVYEQQKSVFSKYFERHGYRVTGISGATAENVPVEQIVENNDIIILTPQILVNNLKKGTIPSLSIFTLMIFDECHNTSKQHPYNMIMFNYLDQKLGGSSGPLPQVIGLTASVGVGDAKNTDEALDYICKLCASLDASVIATVKHNLEELEQVVYKPQKFFRKVESRISDKFKYIIAQLMRDTESLAKRICKDLENLSQIQNREFGTQKYEQWIVTVQKACMVFQMPDKDEESRICKALFLYTSHLRKYNDALIISEHARMKDALDYLKDFFSNVRAAGFDEIEQDLTQRFEEKLQELESVSRDPSNENPKLEDLCFILQEEYHLNPETITILFVKTRALVDALKNWIEGNPKLSFLKPGILTGRGKTNQNTGMTLPAQKCILDAFKASGDHNILIATSVADEGIDIAQCNLVILYEYVGNVIKMIQTRGRGRARGSKCFLLTSNAGVIEKEQINMYKEKMMNDSILRLQTWDEAVFREKILHIQTHEKFIRDSQEKPKPVPDKENKKLLCRKCKALACYTADVRVIEECHYTVLGDAFKECFVSRPHPKPKQFSSFEKRAKIFCARQNCSHDWGIHVKYKTFEIPVIKIESFVVEDIATGVQTLYSKWKDFHFEKIPFDPAEMSK
B5: LAIR-2 (protein, UniProt Q6ISS4 22-152, looked up)
Leukocyte-associated …: QEGALPRPSISAEPGTVISPGSHVTFMCRGPVGVQTFRLEREDRAKYKDSYNVFRLGPSESEARFHIDSVSEGNAGLYRCLYYKPPGWSEHSDFLELLVKESSGGPDSPDTEPGSSAGTVPGTEASGFDAP
B6: SOST (protein, UniProt Q9BQB4 24-213, looked up)
Sclerostin: QGWQAFKNDATEIIPELGEYPEPPPELENNKTMNRAENGGRPPHHPFETKDVSEYSCRELHFTRYVTDGPCRSAKPVTELVCSGQCGPARLLPNAIGRGKWWRPSGPDFRCIPDRYRAQRVQLLCPGGEAPRARKVRLVASCKCKRLTRFHNQSELKDFGTEAARPQKGRKPRPRARSAKANQAELENAY
B7: DDC (protein, UniProt P20711 1-480, looked up)
Aromatic-L-amino-acid …: MNASEFRRRGKEMVDYMANYMEGIEGRQVYPDVEPGYLRPLIPAAAPQEPDTFEDIINDVEKIIMPGVTHWHSPYFFAYFPTASSYPAMLADMLCGAIGCIGFSWAASPACTELETVMMDWLGKMLELPKAFLNEKAGEGGGVIQGSASEATLVALLAARTKVIHRLQAASPELTQAAIMEKLVAYSSDQAHSSVERAGLIGGVKLKAIPSDGNFAMRASALQEALERDKAAGLIPFFMVATLGTTTCCSFDNLLEVGPICNKEDIWLHVDAAYAGSAFICPEFRHLLNGVEFADSFNFNPHKWLLVNFDCSAMWVKKRTDLTGAFRLDPTYLKHSHQDSGLITDYRHWQIPLGRRFRSLKMWFVFRMYGVKGLQAYIRKHVQLSHEFESLVRQDPRFEICVEVILGLVCFRLKGSNKVNEALLQRINSAKKIHLVPCHLRDKFVLRFAICSRTVESAHVQRAWEHIKELAADVLRAERE
B8: CA12 (protein, UniProt O43570 25-354, looked up)
Carbonic anhydrase 12: APVNGSKWTYFGPDGENSWSKKYPSCGGLLQSPIDLHSDILQYDASLTPLEFQGYNLSANKQFLLTNNGHSVKLNLPSDMHIQGLQSRYSATQLHLHWGNPNDPHGSEHTVSGQHFAAELHIVHYNSDLYPDASTASNKSEGLAVLAVLIEMGSFNPSYDKIFSHLQHVKYKGQEAFVPGFNIEELLPERTAEYYRYRGSLTTPPCNPTVLWTVFRNPVQISQEQLLALETALYCTHMDDPSPREMINNFRQVQKFDERLVYTSFSQVQVCTAAGLSLGIILSLALAGILGICIVVVVSIWLFRRKSIKKGDNKGVIYKPATKMETEAHA
B9: ROBO2 (protein, UniProt Q9HCK4 22-1378, looked up)
Roundabout homolog 2: SRLRQEDFPPRIVEHPSDVIVSKGEPTTLNCKAEGRPTPTIEWYKDGERVETDKDDPRSHRMLLPSGSLFFLRIVHGRRSKPDEGSYVCVARNYLGEAVSRNASLEVALLRDDFRQNPTDVVVAAGEPAILECQPPRGHPEPTIYWKKDKVRIDDKEERISIRGGKLMISNTRKSDAGMYTCVGTNMVGERDSDPAELTVFERPTFLRRPINQVVLEEEAVEFRCQVQGDPQPTVRWKKDDADLPRGRYDIKDDYTLRIKKTMSTDEGTYMCIAENRVGKMEASATLTVRAPPQFVVRPRDQIVAQGRTVTFPCETKGNPQPAVFWQKEGSQNLLFPNQPQQPNSRCSVSPTGDLTITNIQRSDAGYYICQALTVAGSILAKAQLEVTDVLTDRPPPIILQGPANQTLAVDGTALLKCKATGDPLPVISWLKEGFTFPGRDPRATIQEQGTLQIKNLRISDTGTYTCVATSSSGETSWSAVLDVTESGATISKNYDLSDLPGPPSKPQVTDVTKNSVTLSWQPGTPGTLPASAYIIEAFSQSVSNSWQTVANHVKTTLYTVRGLRPNTIYLFMVRAINPQGLSDPSPMSDPVRTQDISPPAQGVDHRQVQKELGDVLVRLHNPVVLTPTTVQVTWTVDRQPQFIQGYRVMYRQTSGLQATSSWQNLDAKVPTERSAVLVNLKKGVTYEIKVRPYFNEFQGMDSESKTVRTTEEAPSAPPQSVTVLTVGSYNSTSISVSWDPPPPDHQNGIIQEYKIWCLGNETRFHINKTVDAAIRSVIIGGLFPGIQYRVEVAASTSAGVGVKSEPQPIIIGRRNEVVITENNNSITEQITDVVKQPAFIAGIGGACWVILMGFSIWLYWRRKKRKGLSNYAVTFQRGDGGLMSNGSRPGLLNAGDPSYPWLADSWPATSLPVNNSNSGPNEIGNFGRGDVLPPVPGQGDKTATMLSDGAIYSSIDFTTKTSYNSSSQITQATPYATTQILHSNSIHELAVDLPDPQWKSSIQQKTDLMGFGYSLPDQNKGNNGGKGGKKKKNKNSSKPQKNNGSTWANVPLPPPPVQPLPGTELEHYAVEQQENGYDSDSWCPPLPVQTYLHQGLEDELEEDDDRVPTPPVRGVASSPAISFGQQSTATLTPSPREEMQPMLQAHLDELTRAYQFDIAKQTWHIQSNNQPPQPPVPPLGYVSGALISDLETDVADDDADDEEEALEIPRPLRALDQTPGSSMDNLDSSVTGKAFTSSQRPRPTSPFSTDSNTSAALSQSQRPRPTKKHKGGRMDQQPALPHRREGMTDEEALVPYSKPSFPSPGGHSSSGTASSKGSTGPRKTEVLRAGHQRNASDLLDIGYMGSNSQGQFTGEL
B10: EDIL3 (protein, UniProt O43854 24-480, looked up)
EGF-like repeat and discoidin …: DICDPNPCENGGICLPGLADGSFSCECPDGFTDPNCSSVVEVASDEEEPTSAGPCTPNPCHNGGTCEISEAYRGDTFIGYVCKCPRGFNGIHCQHNINECEVEPCKNGGICTDLVANYSCECPGEFMGRNCQYKCSGPLGIEGGIISNQQITASSTHRALFGLQKWYPYYARLNKKGLINAWTAAENDRWPWIQINLQRKMRVTGVITQGAKRIGSPEYIKSYKIAYSNDGKTWAMYKVKGTNEDMVFRGNIDNNTPYANSFTPPIKAQYVRLYPQVCRRHCTLRMELLGCELSGCSEPLGMKSGHIQDYQITASSIFRTLNMDMFTWEPRKARLDKQGKVNAWTSGHNDQSQWLQVDLLVPTKVTGIITQGAKDFGHVQFVGSYKLAYSNDGEHWTVYQDEKQRKDKVFQGNFDNDTHRKNVIDPPIYARHIRILPWSWYGRITLRSELLGCTEEE

Each molecule was assayed on plasma proteins (assay: Plasma proteins modulated between baseline and day 28 in responders (CR, VGPR, PR; n = 19), Example 6 (Table 13)). Conditions: plasma protein (OLINK NPX); responders (CR, VGPR, PR; n = 19); itacitinib 200 mg or 300 mg QD with corticosteroids; day 28 vs baseline.
Type: in vivo, human
Summary of the method: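 Longitudinal comparison, day 28 versus baseline, with steroid-naive (N=10) and steroid-refractory (N=18) patients combined. Proteins measured by OLINK proximity extension, log2 normalized protein expression. Differences tested by t tests, ANOVA, Pearson correlation, P<0.05 significant.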

**Q.** How did the “Fold Change, Decreased Expression from Baseline to Day 28” value (“Fold Change, Decreased Expression” for short) turn out when B1 was run?
**A.** −1.4472

**Q.** B2 was tested. Which “Fold Change, Decreased Expression” value did it give?
**A.** −1.3807

**Q.** With B3 as the molecule, how does the “Fold Change, Increased Expression from Baseline to Day 28” value (“Fold Change, Increased Expression” below) read?
**A.** 1.2795

**Q.** Which “Fold Change, Decreased Expression” value does the source give for B4 here?
**A.** −1.6381

**Q.** B5 was tested. Which “Fold Change, Decreased Expression” value did it give?
**A.** −1.8117

**Q.** B6 was tested. Which “Fold Change, Decreased Expression” value did it give?
**A.** −1.3214

**Q.** B7 was tested. Which “Fold Change, Increased Expression” value did it give?
**A.** 1.5485

**Q.** For B8, which “Fold Change, Increased Expression” value is on record?
**A.** 1.247

**Q.** For B9, which “Fold Change, Increased Expression” value is on record?
**A.** 1.249

**Q.** Which “Fold Change, Increased Expression” value does the source give for B10 here?
**A.** 1.12
